Key:
Test in all cases: cell-based or functional assay
[1] = biological target: rat α4β4 nAChR (rat), P09483
[2] = biological target: rat NMDA receptor NR1-2b/NR2B (rat), P35439
[3] = biological target: rat NMDA receptor NR1-2b/NR2C (rat), P35439
[4] = biological target: rat α2β2 nAChR (rat), P12389
[5] = biological target: rat α3β2 nAChR (rat), P04757
[6] = biological target: rat α2β4 nAChR (rat), P12389
[7] = biological target: human α7 nAChR (human), P36544
[8] = biological target: rat NMDA receptor NR1-2b/NR2A (rat), P35439
[9] = biological target: rat α4β2 nAChR (rat), P09483
Chain of rat α4β2 nAChR (rat), P09483 (P09483 31-630, chain 1 of 2): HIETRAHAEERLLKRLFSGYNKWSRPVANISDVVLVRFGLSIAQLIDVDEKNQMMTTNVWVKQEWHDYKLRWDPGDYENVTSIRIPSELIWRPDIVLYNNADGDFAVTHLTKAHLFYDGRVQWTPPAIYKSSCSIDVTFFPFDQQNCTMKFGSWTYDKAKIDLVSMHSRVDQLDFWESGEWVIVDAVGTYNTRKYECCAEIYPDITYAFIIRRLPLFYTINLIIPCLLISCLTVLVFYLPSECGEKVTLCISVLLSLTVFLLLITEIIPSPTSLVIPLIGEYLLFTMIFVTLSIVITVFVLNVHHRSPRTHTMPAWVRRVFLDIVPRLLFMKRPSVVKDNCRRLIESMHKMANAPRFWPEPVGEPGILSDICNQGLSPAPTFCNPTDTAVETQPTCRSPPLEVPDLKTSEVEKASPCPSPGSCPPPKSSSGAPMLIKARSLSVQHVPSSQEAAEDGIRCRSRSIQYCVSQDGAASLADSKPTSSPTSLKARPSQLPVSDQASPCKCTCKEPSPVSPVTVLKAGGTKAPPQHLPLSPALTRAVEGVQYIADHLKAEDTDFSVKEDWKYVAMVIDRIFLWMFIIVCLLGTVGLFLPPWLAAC
Chain of rat α4β2 nAChR (rat), P09483 (P12390 25-500, chain 2 of 2, further chain): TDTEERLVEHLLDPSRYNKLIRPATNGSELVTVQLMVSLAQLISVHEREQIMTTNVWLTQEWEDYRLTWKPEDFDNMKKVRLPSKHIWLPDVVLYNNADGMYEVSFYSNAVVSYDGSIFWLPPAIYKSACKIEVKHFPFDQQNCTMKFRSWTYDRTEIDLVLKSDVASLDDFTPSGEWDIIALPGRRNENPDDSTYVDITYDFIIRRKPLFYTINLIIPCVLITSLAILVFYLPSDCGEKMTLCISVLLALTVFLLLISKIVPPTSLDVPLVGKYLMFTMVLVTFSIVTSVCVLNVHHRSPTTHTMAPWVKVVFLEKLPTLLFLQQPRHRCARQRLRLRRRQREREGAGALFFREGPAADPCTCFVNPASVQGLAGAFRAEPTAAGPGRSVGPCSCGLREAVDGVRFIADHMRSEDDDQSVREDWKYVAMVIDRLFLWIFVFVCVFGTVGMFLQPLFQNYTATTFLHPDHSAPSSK

[10] = biological target: human α6/α3β2β3 nAChR (human), P17787
[11] = biological target: rat α7 nAChR (rat), Q05941
[12] = biological target: rat α3β4 nAChR (rat), P04757
[13] = biological target: rat α6/α3β4 nAChR (rat), P12392
[14] = biological target: rat NMDA receptor NR1-2b/NR2D (rat), P35439
[15] = biological target: rat α6/α3β2β3 nAChR (rat), P12390

Chain of human α7 nAChR (human), P36544 (P36544 23-502): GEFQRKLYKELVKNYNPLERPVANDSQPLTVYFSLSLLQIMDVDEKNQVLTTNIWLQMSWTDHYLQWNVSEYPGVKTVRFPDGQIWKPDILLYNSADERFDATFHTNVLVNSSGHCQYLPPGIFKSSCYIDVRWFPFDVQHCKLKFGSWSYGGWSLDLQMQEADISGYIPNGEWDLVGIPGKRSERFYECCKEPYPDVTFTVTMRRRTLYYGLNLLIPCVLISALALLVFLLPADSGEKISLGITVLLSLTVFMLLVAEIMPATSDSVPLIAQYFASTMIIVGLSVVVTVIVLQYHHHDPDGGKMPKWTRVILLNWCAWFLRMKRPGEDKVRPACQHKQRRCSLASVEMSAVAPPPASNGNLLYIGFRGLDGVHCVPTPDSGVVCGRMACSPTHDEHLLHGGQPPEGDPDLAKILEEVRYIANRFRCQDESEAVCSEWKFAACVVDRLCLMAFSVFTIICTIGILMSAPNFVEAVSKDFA
Chain of rat α2β2 nAChR (rat), P12389 (P12389 28-511, chain 1 of 2): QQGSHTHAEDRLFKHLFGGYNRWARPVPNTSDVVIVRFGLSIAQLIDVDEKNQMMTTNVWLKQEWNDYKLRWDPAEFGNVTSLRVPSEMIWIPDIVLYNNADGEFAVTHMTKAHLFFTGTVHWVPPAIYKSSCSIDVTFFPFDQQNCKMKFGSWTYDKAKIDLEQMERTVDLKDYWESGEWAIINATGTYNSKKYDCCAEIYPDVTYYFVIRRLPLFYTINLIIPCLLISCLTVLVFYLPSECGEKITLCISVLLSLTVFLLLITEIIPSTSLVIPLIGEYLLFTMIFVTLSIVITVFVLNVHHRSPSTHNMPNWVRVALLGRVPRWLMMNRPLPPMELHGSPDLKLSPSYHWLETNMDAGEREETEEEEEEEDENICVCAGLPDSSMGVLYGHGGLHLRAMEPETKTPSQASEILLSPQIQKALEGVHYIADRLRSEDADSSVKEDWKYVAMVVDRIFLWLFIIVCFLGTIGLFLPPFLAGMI
Chain of rat α2β2 nAChR (rat), P12389 (P12390 25-500, chain 2 of 2, further chain): as the sequence (P12390 25-500, chain 2 of 2, further chain) above
Chain of rat α2β4 nAChR (rat), P12389 (P12389 28-511, chain 1 of 2): as the sequence (P12389 28-511, chain 1 of 2) above
Chain of rat α2β4 nAChR (rat), P12389 (P12392 21-495, chain 2 of 2, further chain): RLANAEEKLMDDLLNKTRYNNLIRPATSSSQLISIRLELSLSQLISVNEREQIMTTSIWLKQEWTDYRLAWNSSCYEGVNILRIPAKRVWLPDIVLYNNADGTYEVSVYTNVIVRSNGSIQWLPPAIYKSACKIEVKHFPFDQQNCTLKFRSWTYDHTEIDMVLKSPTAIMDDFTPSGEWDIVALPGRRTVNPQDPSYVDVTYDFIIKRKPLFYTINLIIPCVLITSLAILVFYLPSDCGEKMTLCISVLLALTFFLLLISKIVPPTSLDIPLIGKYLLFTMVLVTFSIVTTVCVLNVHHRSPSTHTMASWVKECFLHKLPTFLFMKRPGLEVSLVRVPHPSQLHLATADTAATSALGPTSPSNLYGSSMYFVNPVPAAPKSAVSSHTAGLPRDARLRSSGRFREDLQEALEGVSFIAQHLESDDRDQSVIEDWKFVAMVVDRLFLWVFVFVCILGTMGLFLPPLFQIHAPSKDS
Chain of rat α4β4 nAChR (rat), P09483 (P09483 31-630, chain 1 of 2): as the sequence (P09483 31-630, chain 1 of 2) above
Chain of rat α4β4 nAChR (rat), P09483 (P12392 21-495, chain 2 of 2, further chain): as the sequence (P12392 21-495, chain 2 of 2, further chain) above

TCRSSGRYCRSPYDRRRRYCRRITDACV (modifications not checked) [αO-conotoxin GeXIVA12 (GeXIVA mature peptide isomer with disulfide bonds I-II, III-IV)]
Half-blocking dose IC50, ACh-gated current, oocyte voltage clamp [1]: 2390 nM | Half-blocking dose IC50, NMDA receptor current, oocyte voltage clamp [2]: 4000 nM | Half-blocking dose IC50, NMDA receptor current, oocyte voltage clamp [3]: 655 nM | Half-blocking dose IC50, ACh-gated current, oocyte voltage clamp [4]: 338 nM | Half-blocking dose IC50, ACh-gated current, oocyte voltage clamp [5]: 412 nM | Half-blocking dose IC50, ACh-gated current, oocyte voltage clamp [6]: 2090 nM | Half-blocking dose IC50, ACh-gated current, oocyte voltage clamp [7]: 555 nM | Half-blocking dose IC50, NMDA receptor current, oocyte voltage clamp [8]: 3700 nM | Half-blocking dose IC50, ACh-gated current, oocyte voltage clamp [9]: 979 nM | Half-blocking dose IC50, ACh-gated current, oocyte voltage clamp [10]: 505 nM | Half-blocking dose IC50, ACh-gated current, oocyte voltage clamp [11]: 415 nM | Half-blocking dose IC50, ACh-gated current, oocyte voltage clamp [12]: 5400 nM | Half-blocking dose IC50, ACh-gated current, oocyte voltage clamp [13]: 806 nM | Half-blocking dose IC50, NMDA receptor current, oocyte voltage clamp [14]: 5200 nM | Half-blocking dose IC50, ACh-gated current, oocyte voltage clamp [15]: 258 nM

Reference: patent US20150158921A1
